# Assay results taken from US20150346200A1.
# Target: anti-human β-tryptase antibody
# Assay: sandwich ELISA dose response: plate coated with anti-human β-tryptase antibody, β-tryptase calibrator titrated, detected with AP-conjugated anti-human β-tryptase, luminescence
substance,measurement,value
human β-tryptase (from UniProt Q15661 31-275) (enzyme),EC50,0.065 µg/mL
